Data published in patent publication US20150344570A1 (published 2015).

T1: FcγRIIa R (FcγRIIa, allotype with Arg at position 131), extracellular domain with C-terminal His tag (human, UniProt P12318 34-217)
T1 construct: extracellular domain; also called FcγRIIa R type; 2aR
T1 sequence (looked up): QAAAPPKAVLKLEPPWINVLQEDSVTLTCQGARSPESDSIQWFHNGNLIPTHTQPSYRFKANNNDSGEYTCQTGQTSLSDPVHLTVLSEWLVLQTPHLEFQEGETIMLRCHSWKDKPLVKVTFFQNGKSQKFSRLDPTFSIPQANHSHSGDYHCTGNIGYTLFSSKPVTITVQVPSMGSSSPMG

T2: FcγRIIb extracellular domain with C-terminal His tag (human, UniProt P31994 43-217)
T2 construct: extracellular domain; also called FcgRIIb; 2b
T2 sequence (looked up): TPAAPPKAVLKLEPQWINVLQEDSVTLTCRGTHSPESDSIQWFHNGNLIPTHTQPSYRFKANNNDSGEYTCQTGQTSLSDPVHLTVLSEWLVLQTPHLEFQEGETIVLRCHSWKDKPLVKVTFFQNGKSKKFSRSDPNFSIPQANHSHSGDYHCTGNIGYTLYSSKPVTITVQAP

B1: GpH7-B3 variant S324_04F/GpL16-k0 (antibody, human IgG1, kappa)
heavy: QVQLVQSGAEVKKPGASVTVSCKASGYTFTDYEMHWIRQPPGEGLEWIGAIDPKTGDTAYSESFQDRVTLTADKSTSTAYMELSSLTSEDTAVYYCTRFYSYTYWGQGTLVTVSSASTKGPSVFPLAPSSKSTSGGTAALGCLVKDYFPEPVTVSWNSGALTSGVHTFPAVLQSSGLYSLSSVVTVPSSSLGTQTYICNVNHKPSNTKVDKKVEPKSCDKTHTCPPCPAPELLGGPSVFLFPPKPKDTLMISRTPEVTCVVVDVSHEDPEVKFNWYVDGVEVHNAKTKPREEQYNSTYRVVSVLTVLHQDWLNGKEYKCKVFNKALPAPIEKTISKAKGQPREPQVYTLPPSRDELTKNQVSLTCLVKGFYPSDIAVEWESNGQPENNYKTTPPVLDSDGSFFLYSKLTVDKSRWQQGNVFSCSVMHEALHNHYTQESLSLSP
light: DIVMTQSPLSLPVTPGEPASISCQASESLVHSNRNTYLHWYLQKPGQSPQLLIYKVSNRFSGVPDRFSGSGSGTDFTLKISRVEAEDVGVYYCSQNTHVPPTFGQGTKVEIERTVAAPSVFIFPPSDEQLKSGTASVVCLLNNFYPREAKVQWKVDNALQSGNSQESVTEQDSKDSTYSLSSTLTLSKADYEKHKVYACEVTHQGLSSPVTKSFNRGEC
notes: also called Ho Ab
B2: GpH7-B3 variant S324_06M/GpL16-k0 (antibody, human IgG1, kappa)
heavy: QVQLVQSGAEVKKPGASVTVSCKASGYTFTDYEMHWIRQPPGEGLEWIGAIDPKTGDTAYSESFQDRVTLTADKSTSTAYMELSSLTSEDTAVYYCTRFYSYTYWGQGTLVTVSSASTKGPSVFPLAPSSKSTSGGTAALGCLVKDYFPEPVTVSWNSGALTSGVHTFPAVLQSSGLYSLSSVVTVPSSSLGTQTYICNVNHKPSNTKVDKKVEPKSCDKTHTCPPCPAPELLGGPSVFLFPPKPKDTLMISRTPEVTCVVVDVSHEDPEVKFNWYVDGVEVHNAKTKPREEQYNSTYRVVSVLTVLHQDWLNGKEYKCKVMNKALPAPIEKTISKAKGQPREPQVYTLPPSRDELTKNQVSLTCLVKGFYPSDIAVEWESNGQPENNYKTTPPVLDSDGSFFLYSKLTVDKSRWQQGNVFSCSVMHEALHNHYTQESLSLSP
light: B1 light
notes: also called Ho Ab
B3: GpH7-B3 variant S337_03V/GpL16-k0 (antibody, human IgG1, kappa)
heavy: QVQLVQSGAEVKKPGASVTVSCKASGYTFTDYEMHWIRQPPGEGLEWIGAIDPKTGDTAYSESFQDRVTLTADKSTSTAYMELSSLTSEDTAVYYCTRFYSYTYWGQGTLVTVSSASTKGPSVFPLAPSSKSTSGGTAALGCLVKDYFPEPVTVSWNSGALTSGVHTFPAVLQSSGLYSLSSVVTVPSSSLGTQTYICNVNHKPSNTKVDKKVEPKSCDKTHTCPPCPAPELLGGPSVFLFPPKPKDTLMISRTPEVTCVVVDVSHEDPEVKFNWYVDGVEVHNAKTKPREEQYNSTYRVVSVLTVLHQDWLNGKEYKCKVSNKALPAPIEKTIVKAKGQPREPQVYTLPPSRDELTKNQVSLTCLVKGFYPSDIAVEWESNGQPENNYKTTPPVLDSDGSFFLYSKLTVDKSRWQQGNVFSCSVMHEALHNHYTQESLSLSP
light: B1 light
notes: also called Ho Ab
B4: GpH7-B3 variant S337_04F/GpL16-k0 (antibody, human IgG1, kappa)
heavy: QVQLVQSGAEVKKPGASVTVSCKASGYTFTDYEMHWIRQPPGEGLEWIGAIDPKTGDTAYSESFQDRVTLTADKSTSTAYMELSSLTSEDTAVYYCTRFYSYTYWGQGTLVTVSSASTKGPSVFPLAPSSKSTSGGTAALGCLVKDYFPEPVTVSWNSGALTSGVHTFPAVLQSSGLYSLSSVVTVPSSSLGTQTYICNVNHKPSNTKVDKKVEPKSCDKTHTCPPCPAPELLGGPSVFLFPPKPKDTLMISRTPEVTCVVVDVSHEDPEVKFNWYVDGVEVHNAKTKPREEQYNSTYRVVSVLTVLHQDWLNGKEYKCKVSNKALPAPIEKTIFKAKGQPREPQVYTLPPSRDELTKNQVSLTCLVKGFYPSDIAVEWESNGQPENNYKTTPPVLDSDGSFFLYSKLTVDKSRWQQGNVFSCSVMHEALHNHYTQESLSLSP
light: B1 light
notes: also called Ho Ab
B5: GpH7-B3 variant S337_06M/GpL16-k0 (antibody, human IgG1, kappa)
heavy: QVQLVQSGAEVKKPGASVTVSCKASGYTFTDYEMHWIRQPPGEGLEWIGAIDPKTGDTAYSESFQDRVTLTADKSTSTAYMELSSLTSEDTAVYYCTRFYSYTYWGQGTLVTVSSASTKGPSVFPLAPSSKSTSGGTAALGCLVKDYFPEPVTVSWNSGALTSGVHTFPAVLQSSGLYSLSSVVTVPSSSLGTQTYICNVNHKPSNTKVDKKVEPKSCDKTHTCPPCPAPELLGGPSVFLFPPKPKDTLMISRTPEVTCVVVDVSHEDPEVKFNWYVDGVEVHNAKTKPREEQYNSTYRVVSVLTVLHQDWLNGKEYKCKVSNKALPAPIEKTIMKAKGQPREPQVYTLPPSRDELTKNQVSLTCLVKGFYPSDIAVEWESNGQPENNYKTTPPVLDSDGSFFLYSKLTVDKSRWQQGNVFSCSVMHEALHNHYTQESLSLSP
light: B1 light
notes: also called Ho Ab
B6: GpH7-A5/GpH7-B3 variant S239_10E/GpL16-k0 (antibody, human IgG1, kappa)
heavy 1: not shown
heavy 2: not shown
light: B1 light
notes: also called He Ab S239_10E
B7: GpH7-A5/GpH7-B3 variant S267_01G/GpL16-k0 (antibody, human IgG1, kappa)
heavy 1: not shown
heavy 2: not shown
light: B1 light
notes: also called He Ab S267_01G
B8: GpH7-A5/GpH7-B3 variant S267_06M/GpL16-k0 (antibody, human IgG1, kappa)
heavy 1: not shown
heavy 2: not shown
light: B1 light
notes: also called He Ab S267_06M
B9: GpH7-A5/GpH7-B3 variant S267_19Q/GpL16-k0 (antibody, human IgG1, kappa)
heavy 1: not shown
heavy 2: not shown
light: B1 light
notes: also called He Ab S267_19Q
B10: GpH7-A5/GpH7-B3 variant S298_06M/GpL16-k0 (antibody, human IgG1, kappa)
heavy 1: not shown
heavy 2: not shown
light: B1 light
notes: also called He Ab S298_06M
B11: GpH7-A5/GpH7-B3 variant S324_06M/GpL16-k0 (antibody, human IgG1, kappa)
heavy 1: not shown
heavy 2: not shown
light: B1 light
notes: also called He Ab S324_06M
B12: GpH7-A5/GpH7-B3 variant S337_07I/GpL16-k0 (antibody, human IgG1, kappa)
heavy 1: not shown
heavy 2: not shown
light: B1 light
notes: also called He Ab S337_07I
B13: GpH7-A5/GpH7-B3 variant S337_08L/GpL16-k0 (antibody, human IgG1, kappa)
heavy 1: not shown
heavy 2: not shown
light: B1 light
notes: also called He Ab S337_08L
B14: GpH7-A5/GpH7-B3 variant S337_15Y/GpL16-k0 (antibody, human IgG1, kappa)
heavy 1: not shown
heavy 2: not shown
light: B1 light
notes: also called He Ab S337_15Y
B15: GpH7-A5/GpH7-B3 variant S337_16H/GpL16-k0 (antibody, human IgG1, kappa)
heavy 1: not shown
heavy 2: not shown
light: B1 light
notes: also called He Ab S337_16H
B16: GpH7-A5/GpH7-B3 variant S337_18N/GpL16-k0 (antibody, human IgG1, kappa)
heavy 1: not shown
heavy 2: not shown
light: B1 light
notes: also called He Ab S337_18N
B17: GpH7-A5/GpH7-B3 variant S337_20W/GpL16-k0 (antibody, human IgG1, kappa)
heavy 1: not shown
heavy 2: not shown
light: B1 light
notes: also called He Ab S337_20W
B18: GpH7-A5/GpH7-B3 variant T335_07I/GpL16-k0 (antibody, human IgG1, kappa)
heavy 1: not shown
heavy 2: not shown
light: B1 light
notes: also called He Ab T335_07I
B19: GpH7-A5/GpH7-B3 variant T335_10E/GpL16-k0 (antibody, human IgG1, kappa)
heavy 1: not shown
heavy 2: not shown
light: B1 light
notes: also called He Ab T335_10E
B20: GpH7-A5/GpH7-B3 variant T335_13S/GpL16-k0 (antibody, human IgG1, kappa)
heavy 1: not shown
heavy 2: not shown
light: B1 light
notes: also called He Ab T335_13S
B21: GpH7-A5/GpH7-B3 variant T335_15Y/GpL16-k0 (antibody, human IgG1, kappa)
heavy 1: not shown
heavy 2: not shown
light: B1 light
notes: also called He Ab T335_15Y
B22: GpH7-A5/GpH7-B3 variant T335_16H/GpL16-k0 (antibody, human IgG1, kappa)
heavy 1: not shown
heavy 2: not shown
light: B1 light
notes: also called He Ab T335_16H
B23: GpH7-A5/GpH7-B3 variant T335_18N/GpL16-k0 (antibody, human IgG1, kappa)
heavy 1: not shown
heavy 2: not shown
light: B1 light
notes: also called He Ab T335_18N
B24: GpH7-A5/GpH7-B3 variant T335_19Q/GpL16-k0 (antibody, human IgG1, kappa)
heavy 1: not shown
heavy 2: not shown
light: B1 light
notes: also called He Ab T335_19Q
B25: GpH7-A5/GpH7-B3 variant T335_20W/GpL16-k0 (antibody, human IgG1, kappa)
heavy 1: not shown
heavy 2: not shown
light: B1 light
notes: also called He Ab T335_20W
B26: GpH7-A5/GpH7-B3 variant V266_06M/GpL16-k0 (antibody, human IgG1, kappa)
heavy 1: not shown
heavy 2: not shown
light: B1 light
notes: also called He Ab V266_06M
B27: GpH7-A5/GpH7-B3 variant Y296_20W/GpL16-k0 (antibody, human IgG1, kappa)
heavy 1: not shown
heavy 2: not shown
light: B1 light
notes: also called He Ab Y296_20W

What follows are binders tested against T1, FcγRIIa R (FcγRIIa, allotype with Arg …) (assay: SPR (Biacore), antibody captured on antigen peptide chip, FcγR as analyte; relative binding).
Experimental: Analysis of interaction between objective antibody and the FcγR was carried out using Biacore T100 (GE Healthcare). HBS-EP+ (GE Healthcare) was used as the running buffer, and the measurement temperature was set to 25° C. Chips produced by immobilizing the antigen peptide by the amine coupling method to a Series S Sencor Chip CM5 (GE Healthcare), or alternatively, chips produced by allowing preliminarily biotinylated antigen peptides to interact with and immobilize onto a Series S Sensor Chip SA (certified) (GE Healthcare) were used. Antibodies of interest were captured onto an antigen peptide-immobilized chip, and allowed to interact to each FcγR diluted with running buffer. To regenerate and repeatedly use the chip, the antibodies captured on the chip were washed off by reacting 10 mM glycine-HCl, pH 1.5.

With B1 as the binder, how does the Ho/Con_2aR read?
Its Ho/Con_2aR is 101 % of GpH7-B3/GpL16-k0 (=100).

Which Ho/Con_2aR does the source give for B2 here?
Its Ho/Con_2aR is 118 % of GpH7-B3/GpL16-k0 (=100).

For B3, which Ho/Con_2aR is on record?
The Ho/Con_2aR was 102 % of GpH7-B3/GpL16-k0 (=100).

B4 was tested. Which Ho/Con_2aR did it give?
Its Ho/Con_2aR is 98.3 % of GpH7-B3/GpL16-k0 (=100).

With B5 as the binder, how does the Ho/Con_2aR read?
The Ho/Con_2aR was 101 % of GpH7-B3/GpL16-k0 (=100).

What follows are binders tested against T2, FcγRIIb extracellular domain with … (assay: SPR (Biacore), relative binding).

B6 was tested. Which He/Con_2b did it give?
The He/Con_2b was 181 % of HeCon Ab GpH7-A5/GpH7-B3/GpL16-k0.

With B7 as the binder, how does the He/Con_2b read?
The He/Con_2b was 105 % of HeCon Ab GpH7-A5/GpH7-B3/GpL16-k0.

How did the He/Con_2b turn out when B8 was run?
Its He/Con_2b is 210 % of HeCon Ab GpH7-A5/GpH7-B3/GpL16-k0.

With B9 as the binder, how does the He/Con_2b read?
Its He/Con_2b is 218 % of HeCon Ab GpH7-A5/GpH7-B3/GpL16-k0.

B10 was tested. Which He/Con_2b did it give?
Its He/Con_2b is 102 % of HeCon Ab GpH7-A5/GpH7-B3/GpL16-k0.

Which He/Con_2b does the source give for B11 here?
The He/Con_2b was 112 % of HeCon Ab GpH7-A5/GpH7-B3/GpL16-k0.

For B12, which He/Con_2b is on record?
Its He/Con_2b is 104 % of HeCon Ab GpH7-A5/GpH7-B3/GpL16-k0.

With B13 as the binder, how does the He/Con_2b read?
The He/Con_2b was 100 % of HeCon Ab GpH7-A5/GpH7-B3/GpL16-k0.

How did the He/Con_2b turn out when B14 was run?
Its He/Con_2b is 100 % of HeCon Ab GpH7-A5/GpH7-B3/GpL16-k0.

How did the He/Con_2b turn out when B15 was run?
The He/Con_2b was 105 % of HeCon Ab GpH7-A5/GpH7-B3/GpL16-k0.

With B16 as the binder, how does the He/Con_2b read?
The He/Con_2b was 103 % of HeCon Ab GpH7-A5/GpH7-B3/GpL16-k0.

How did the He/Con_2b turn out when B17 was run?
Its He/Con_2b is 109 % of HeCon Ab GpH7-A5/GpH7-B3/GpL16-k0.

How did the He/Con_2b turn out when B18 was run?
The He/Con_2b was 106 % of HeCon Ab GpH7-A5/GpH7-B3/GpL16-k0.

Which He/Con_2b does the source give for B19 here?
Its He/Con_2b is 108 % of HeCon Ab GpH7-A5/GpH7-B3/GpL16-k0.

B20 was tested. Which He/Con_2b did it give?
Its He/Con_2b is 102 % of HeCon Ab GpH7-A5/GpH7-B3/GpL16-k0.

How did the He/Con_2b turn out when B21 was run?
The He/Con_2b was 108 % of HeCon Ab GpH7-A5/GpH7-B3/GpL16-k0.

B22 was tested. Which He/Con_2b did it give?
Its He/Con_2b is 102 % of HeCon Ab GpH7-A5/GpH7-B3/GpL16-k0.

B23 was tested. Which He/Con_2b did it give?
Its He/Con_2b is 102 % of HeCon Ab GpH7-A5/GpH7-B3/GpL16-k0.

With B24 as the binder, how does the He/Con_2b read?
Its He/Con_2b is 100 % of HeCon Ab GpH7-A5/GpH7-B3/GpL16-k0.

For B25, which He/Con_2b is on record?
The He/Con_2b was 104 % of HeCon Ab GpH7-A5/GpH7-B3/GpL16-k0.

For B26, which He/Con_2b is on record?
Its He/Con_2b is 251 % of HeCon Ab GpH7-A5/GpH7-B3/GpL16-k0.

With B27 as the binder, how does the He/Con_2b read?
The He/Con_2b was 103 % of HeCon Ab GpH7-A5/GpH7-B3/GpL16-k0.
